# In publication PMC5036048 (Scientific Reports, 2016):
# B1: CP-IDL (peptide)
# peptide: WMEWDREINNYTSLIHSLIEESQNQQIDL
# Assays:
# [1] = biological target: T1, N43 (gp41 NHR peptide, Val539~Leu581) (HIV-1 (numbering of HIV-1 HXB2 gp160), UniProt P04578 539-581); experiment: cell-based or functional assay
# [2] = biological target: T1, N43 (gp41 NHR peptide, Val539~Leu581); experiment: cell-based or functional assay; remark: listed apart in the source
# T1 sequence (P04578 539-581): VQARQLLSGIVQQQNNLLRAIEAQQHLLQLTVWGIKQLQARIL
binder,measurement,setting,value
B1,IC50 of inhibition of HIV-1 pseudovirus B1206.W6P.ENV.A1 (subtype A),[1],74.5 nM
same,IC50 of inhibition of HIV-1 pseudovirus BG505.W6M.ENV.C2 (subtype A),[1],8.61 nM
same,IC50 of inhibition of HIV-1 pseudovirus BJ412.W6M.ENV.S3 (subtype C),[1],1.21 nM
same,IC50 of inhibition of HIV-1 pseudovirus MJ412.W0M.ENV.B1 (subtype C),[1],2.24 nM
same,"IC50 of inhibition of HIV-1 pseudovirus SF162.LS (subtype B, R5, Tier 1)",[1],1.51 nM
same,"IC50 of inhibition of HIV-1 pseudovirus ZM109F.PB4 (subtype C, R5)",[1],2.93 nM
same,"IC50 of inhibition of HIV-1 pseudovirus pCH119 env (subtype BC, R5, Tier 2)",[1],5.79 nM
same,"IC50 of inhibition of infection, T20-resistant strain N42T, N43K",[2],382 nM
same,"IC50 of inhibition of infection, T2635-resistant strain K154Q",[2],9.79 nM
same,"IC50 of inhibition of infection, T2635-resistant strain N113E",[2],7.99 nM
same,"IC50 of inhibition of infection, T2635-resistant strain N126K",[2],46.4 nM
same,"IC50 of inhibition of infection, T2635-resistant strain Q66R, N126K",[2],302 nM
same,"IC50 of inhibition of infection, panel of T20-resistant strains: WT",[2],8.67 nM
same,"IC50 of inhibition of infection, panel of T2635-resistant strains: WT",[2],10.8 nM
